47 variants from the Human Domainome abundance scans (Beltran et al. 2025) can be followed below.

± gives the uncertainty stated by the source.

The chains are these.
B1: Zinc finger homeobox protein 3, residues 2244 to 2299; numbered along this chain, Q15911 (parent)
chain: SSRTRFTDYQLRVLQDFFDANAYPKDDEFEQLSNLLNLPTRVIVVWFQNARQKARK

The variants in this series derive from B1. Kind of series: abundance fitness (aPCA) (normalised: wild type 0, dead -1); higher = more abundant; growth selection in yeast, the domain comes from the species named. Conditions: Homo sapiens.
As for SSRTRFTDYQLRVLQDFFDANAYPKDDEFEQLSNLCNLPTRVIVVWFQNARQKARK [L36C], the abundance fitness was -0.313 ± 0.12.
As for SSRTRFTDYQLRVLQDFFDANAYPKDDEFEQLSNLKNLPTRVIVVWFQNARQKARK [L36K], the abundance fitness is -0.95 ± 0.34.
In the case of SSRTRFHDYQLRVLQDFFDANAYPKDDEFEQLSNLLNLPTRVIVVWFQNARQKARK [T7H] it was -0.665 ± 0.19; in that of SSRTRFADYQLRVLQDFFDANAYPKDDEFEQLSNLLNLPTRVIVVWFQNARQKARK [T7A], -0.289 ± 0.089; in that of SSRTRFTDYQLRVLQDFFDANAYPKDDEFEQLKNLLNLPTRVIVVWFQNARQKARK [S33K], -0.129 ± 0.18.
In the case of SSRTRFTDYQLRVLQDFFDANAYPKDDEFEQLSNLLNLPTRVIVVWFQNERQKARK [A50E] it was -0.095 ± 0.14; in that of SSRTRFTDYQLRVLQDFFDANAYPKDDEFEQLSNLLNLPTRVIVVWFQNWRQKARK [A50W], -0.496 ± 0.13.
Regarding MSRTRFTDYQLRVLQDFFDANAYPKDDEFEQLSNLLNLPTRVIVVWFQNARQKARK [S1M], the abundance fitness was -0.277 ± 0.29.
In the case of PSRTRFTDYQLRVLQDFFDANAYPKDDEFEQLSNLLNLPTRVIVVWFQNARQKARK [S1P] it was -0.636 ± 0.36.
Regarding SMRTRFTDYQLRVLQDFFDANAYPKDDEFEQLSNLLNLPTRVIVVWFQNARQKARK [S2M], the abundance fitness worked out at 0.321 ± 0.18.
Turning to SYRTRFTDYQLRVLQDFFDANAYPKDDEFEQLSNLLNLPTRVIVVWFQNARQKARK [S2Y], the abundance fitness worked out at 0.097 ± 0.15.
In the case of SSRTRFTDYQLRVLQDFFDANAYPKDDEFEQASNLLNLPTRVIVVWFQNARQKARK [L32A], the abundance fitness is -0.568 ± 0.1.
For SSRTRFTDYQLRVLQDFFDANAYPKDDEFEQTSNLLNLPTRVIVVWFQNARQKARK [L32T] the value was -0.497 ± 0.13; for SSRTRFTDYQLRVLQDFFDASAYPKDDEFEQLSNLLNLPTRVIVVWFQNARQKARK [N21S], -0.157 ± 0.099.
With SSRTRFTDYQLRVLQDFFDSNAYPKDDEFEQLSNLLNLPTRVIVVWFQNARQKARK [A20S], the abundance fitness was -0.065 ± 0.12.
For SSRTRFTDYQLRVLQDFFDNNAYPKDDEFEQLSNLLNLPTRVIVVWFQNARQKARK [A20N], the abundance fitness was found to be 0.24 ± 0.23.
Consider SSRTRFTDYQLRVLQDFFDTNAYPKDDEFEQLSNLLNLPTRVIVVWFQNARQKARK [A20T], for which the abundance fitness is -0.044 ± 0.086.
In the case of SSRTRFTDYQLRVLQDFFDVNAYPKDDEFEQLSNLLNLPTRVIVVWFQNARQKARK [A20V] it was -0.249 ± 0.086; in that of SSRTRFTDYQLRVLQDFFDANAYPKDDEFEQLSNLLNLPTRVIVVWFQNARQKARH [K56H], -0.053 ± 0.12; in that of SSRTRFTDYQLRVLQDFFDANAYPKDDEFEQLSNLLNLPTRVIVVWFQNARQKAQK [R55Q], 0.049 ± 0.15.
Take SSRTRFTDYQLRVLQDFFDANAYPKDDEFEQLSNLLNLPTRVIVVWFQNARQKAPK [R55P]: the abundance fitness was determined as 0.051 ± 0.075.
With SSRTRFTDYQLRVLQDFFDANAYPKDDEFEQLSNLLNLPTRVIVVWFQNARQKALK [R55L], the abundance fitness is -0.001 ± 0.074.
In the case of SSRTRFTDYQLRVLQDFFDANAYPKDDEFEQLSNLLNLPTRVIVVWFQNARWKARK [Q52W] it was -0.204 ± 0.12; in that of SSRTRFTDYQLRVLQDFFDANAYPKDDEFEQLSNLLNLPTRVIVVWFQNARAKARK [Q52A], -0.008 ± 0.077; in that of SSRTRFTDYQLRVLQDFFDANAYPKDDEFEQLSNLLNLPTRVIVVWFQNARLKARK [Q52L], -0.107 ± 0.065.
Take SSRTRFTDYQLRVLQDFFDANAYPKDDEFEQLSNLLNLPTRVIVVWFQNARQIARK [K53I]: the abundance fitness is -0.019 ± 0.088.
For SSRTRFTDEQLRVLQDFFDANAYPKDDEFEQLSNLLNLPTRVIVVWFQNARQKARK [Y9E] the value was -0.007 ± 0.11; for SSRTRFTDNQLRVLQDFFDANAYPKDDEFEQLSNLLNLPTRVIVVWFQNARQKARK [Y9N], -0.097 ± 0.16.
Regarding SSRTRFTDAQLRVLQDFFDANAYPKDDEFEQLSNLLNLPTRVIVVWFQNARQKARK [Y9A], the abundance fitness stood at 0.083 ± 0.1.
With SSRTRFTDGQLRVLQDFFDANAYPKDDEFEQLSNLLNLPTRVIVVWFQNARQKARK [Y9G], the abundance fitness is -0.063 ± 0.078.
Consider SSRTRFTDYQLRVLQDFFDANAYPKDDEFEQLSNLLNLHTRVIVVWFQNARQKARK [P39H], for which the abundance fitness is -0.149 ± 0.082.
In the case of SSRTRFTDYQLRVLQDFFDANAYPKDDEFEQLSNLLNLQTRVIVVWFQNARQKARK [P39Q], the abundance fitness was -0.028 ± 0.11.
For SSRTRFTLYQLRVLQDFFDANAYPKDDEFEQLSNLLNLPTRVIVVWFQNARQKARK [D8L], the abundance fitness is -0.332 ± 0.093.
For the variant SSSTRFTDYQLRVLQDFFDANAYPKDDEFEQLSNLLNLPTRVIVVWFQNARQKARK [R3S], the abundance fitness stood at 0.386 ± 0.11.
Regarding SSRTRFTDYQLRVLQDFFDANAYPKDDEFEQLSNLLNLPTRVIVVWCQNARQKARK [F47C], the abundance fitness was -0.728 ± 0.11.
For SSRTRFTDYQLRVLQDFFDANAYPKDDEFEQLSNLLNLPTRVIVVWVQNARQKARK [F47V], the abundance fitness is -0.565 ± 0.083.
On to SSRTRFTDYQLRVLQDFFDANAYPKDDEFEQLSNLLDLPTRVIVVWFQNARQKARK [N37D], for which the abundance fitness is -0.032 ± 0.13.
In the case of SSRTRFTDYQLRVLQDFFDANAYPKDDEFEQLSNLLNLPTRIIVVWFQNARQKARK [V42I] it was -0.022 ± 0.33.
SSRTRFTDYQLRVLQDFFDANAYPKDDEFEQLSNLLNLPTRAIVVWFQNARQKARK [V42A]: the abundance fitness was -0.045 ± 0.11.
In the case of SSRTRFTDYQLRVLQDFMDANAYPKDDEFEQLSNLLNLPTRVIVVWFQNARQKARK [F18M], the abundance fitness was -0.298 ± 0.14.
In the case of SSRTRFTDYQLRVLQDFLDANAYPKDDEFEQLSNLLNLPTRVIVVWFQNARQKARK [F18L] it was -0.19 ± 0.1; in that of SSRTRFTDYQLRLLQDFFDANAYPKDDEFEQLSNLLNLPTRVIVVWFQNARQKARK [V13L], -0.093 ± 0.073.
For SSRTRFTDYQLRGLQDFFDANAYPKDDEFEQLSNLLNLPTRVIVVWFQNARQKARK [V13G], the abundance fitness was -0.339 ± 0.084.
With SSRTRFTDYQLRVDQDFFDANAYPKDDEFEQLSNLLNLPTRVIVVWFQNARQKARK [L14D], the abundance fitness was -0.825 ± 0.19.
In the case of SSRTRFTDYQLRVAQDFFDANAYPKDDEFEQLSNLLNLPTRVIVVWFQNARQKARK [L14A], the abundance fitness was -0.668 ± 0.12.
Turning to SSRTRFTDYQLRVSQDFFDANAYPKDDEFEQLSNLLNLPTRVIVVWFQNARQKARK [L14S], the abundance fitness was -0.849 ± 0.12.
For SSRTRFTDYQLRVLQDFFDANAYPKDDEFEQLSNPLNLPTRVIVVWFQNARQKARK [L35P] the value was -0.918 ± 0.2.
